Laboratory results reported in article PMC9482650, “Quantitative fragmentomics allow affinity mapping of interactomes” (Nature Communications, 2022).

Key:
Test in all cases: holdup assay
Set-up in all cases: key: below the threshold = too weak to quantify, mostly under pKd 3.1 to 4
APBA2_1, Q99767 = target: T1, APBA2_1, Q99767
T1 sequence (Q99767 563-664, limits assumed, looked up): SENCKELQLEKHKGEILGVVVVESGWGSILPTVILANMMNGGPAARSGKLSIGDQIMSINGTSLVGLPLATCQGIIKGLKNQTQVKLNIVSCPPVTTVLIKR

SCRIB_3, Q14160 = target: SCRIB_3, Q14160
Chain of SCRIB_3, Q14160 (Q14160 999-1103): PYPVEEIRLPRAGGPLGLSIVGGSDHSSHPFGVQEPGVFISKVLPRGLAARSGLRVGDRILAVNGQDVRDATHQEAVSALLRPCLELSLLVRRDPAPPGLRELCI

LIMK2, P53671 = target: LIMK2, P53671
Chain of LIMK2, P53671 (P53671 143-248): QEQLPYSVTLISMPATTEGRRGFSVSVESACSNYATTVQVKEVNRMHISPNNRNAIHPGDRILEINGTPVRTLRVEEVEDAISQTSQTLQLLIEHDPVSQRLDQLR

PDZD2_2, O15018 = target: T2, PDZD2_2, O15018
T2 sequence (O15018 329-429, limits assumed, looked up): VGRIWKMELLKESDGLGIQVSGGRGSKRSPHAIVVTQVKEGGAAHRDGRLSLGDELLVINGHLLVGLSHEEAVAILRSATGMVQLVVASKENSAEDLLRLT

MPDZ_10, O75970 = target: T3, MPDZ_10, O75970
T3 sequence (O75970 1624-1722, limits assumed, looked up): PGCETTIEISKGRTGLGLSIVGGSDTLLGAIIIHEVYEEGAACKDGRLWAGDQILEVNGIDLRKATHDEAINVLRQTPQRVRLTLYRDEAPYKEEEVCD

DFNB31_2, Q9P202 = target: T4, DFNB31_2, Q9P202
T4 sequence (Q9P202 274-371, limits assumed, looked up): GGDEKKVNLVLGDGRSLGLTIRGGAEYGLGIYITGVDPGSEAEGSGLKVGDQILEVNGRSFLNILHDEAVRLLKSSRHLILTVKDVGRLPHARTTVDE

IL16_4, Q14005 = target: IL16_4, Q14005
Chain of IL16_4, Q14005 (Q14005 1229-1329): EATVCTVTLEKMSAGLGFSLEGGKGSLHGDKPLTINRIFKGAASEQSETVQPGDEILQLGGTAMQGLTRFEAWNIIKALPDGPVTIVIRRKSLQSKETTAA

HTRA1, Q92743 = target: HTRA1, Q92743
Chain of HTRA1, Q92743 (Q92743 360-477): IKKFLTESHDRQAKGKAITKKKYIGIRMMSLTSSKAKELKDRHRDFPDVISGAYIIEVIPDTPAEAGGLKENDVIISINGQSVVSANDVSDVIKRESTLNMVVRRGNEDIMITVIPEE

LNX2_3, Q8N448 = target: T5, LNX2_3, Q8N448
T5 sequence (Q8N448 463-564, limits assumed, looked up): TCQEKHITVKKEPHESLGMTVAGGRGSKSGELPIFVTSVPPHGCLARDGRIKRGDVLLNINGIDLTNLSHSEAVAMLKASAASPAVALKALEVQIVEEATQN

DLG1_1, Q12959 = target: DLG1_1, Q12959
GRASP, Q7Z6J2 = target: GRASP, Q7Z6J2
Chain of GRASP, Q7Z6J2 (Q7Z6J2 96-193): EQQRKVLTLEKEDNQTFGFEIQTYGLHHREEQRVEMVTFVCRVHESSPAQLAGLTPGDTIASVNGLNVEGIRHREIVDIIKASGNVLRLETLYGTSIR

GRIP2_3, Q9C0E4 = target: GRIP2_3, Q9C0E4
Chain of GRIP2_3, Q9C0E4 (Q9C0E4 238-339): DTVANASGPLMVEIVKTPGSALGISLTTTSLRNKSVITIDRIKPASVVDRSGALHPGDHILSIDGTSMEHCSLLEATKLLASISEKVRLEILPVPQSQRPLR

DVL3, Q92997 = target: T6, DVL3, Q92997
T6 sequence (Q92997 244-331, limits assumed, looked up): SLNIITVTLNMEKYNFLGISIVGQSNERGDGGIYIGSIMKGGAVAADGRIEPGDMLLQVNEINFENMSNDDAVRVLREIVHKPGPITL

RAPGEF6, Q8TEU7 = target: T7, RAPGEF6, Q8TEU7
T7 sequence (Q8TEU7 525-625, limits assumed, looked up): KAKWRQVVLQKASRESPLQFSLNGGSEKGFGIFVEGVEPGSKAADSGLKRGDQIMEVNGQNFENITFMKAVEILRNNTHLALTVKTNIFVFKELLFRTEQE

IL16_3, Q14005 = target: IL16_3, Q14005
Chain of IL16_3, Q14005 (Q14005 1107-1207): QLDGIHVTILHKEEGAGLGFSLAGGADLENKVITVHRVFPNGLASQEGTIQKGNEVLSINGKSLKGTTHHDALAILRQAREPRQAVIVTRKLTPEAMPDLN

MPP6, Q9NZW5 = target: T8, MPP6, Q9NZW5
T8 sequence (Q9NZW5 125-219, limits assumed, looked up): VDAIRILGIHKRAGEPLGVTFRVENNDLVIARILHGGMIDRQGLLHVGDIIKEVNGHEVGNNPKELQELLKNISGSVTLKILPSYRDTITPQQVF

SNX27, Q96L92 = target: SNX27, Q96L92
GRIP2_6, Q9C0E4 = target: GRIP2_6, Q9C0E4
Chain of GRIP2_6, Q9C0E4 (Q9C0E4 648-740): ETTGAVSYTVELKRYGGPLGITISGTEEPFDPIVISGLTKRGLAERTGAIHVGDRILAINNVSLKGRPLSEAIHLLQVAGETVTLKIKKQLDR

DLG5_1, Q8TDM6 = target: DLG5_1, Q8TDM6
Chain of DLG5_1, Q8TDM6 (Q8TDM6 617-713): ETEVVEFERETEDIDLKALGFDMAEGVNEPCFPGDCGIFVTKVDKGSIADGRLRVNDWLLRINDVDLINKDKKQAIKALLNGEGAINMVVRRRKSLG

ARHGEF11, O15085 = target: T9, ARHGEF11, O15085
T9 sequence (O15085 42-136, limits assumed, looked up): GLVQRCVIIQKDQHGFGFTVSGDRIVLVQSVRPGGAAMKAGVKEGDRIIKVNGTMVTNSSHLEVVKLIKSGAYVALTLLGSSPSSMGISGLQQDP

TJP1_2, Q07157 = target: TJP1_2, Q07157
Chain of TJP1_2, Q07157 (Q07157 181-274): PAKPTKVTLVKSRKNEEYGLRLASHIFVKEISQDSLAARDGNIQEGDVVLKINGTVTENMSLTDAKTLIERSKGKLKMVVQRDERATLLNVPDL

NHERF4_1, Q86UT5-2 = target: NHERF4_1, Q86UT5-2
Chain of NHERF4_1, Q86UT5-2 (Q86UT5 other isoform, or with tags, fused parts or gaps): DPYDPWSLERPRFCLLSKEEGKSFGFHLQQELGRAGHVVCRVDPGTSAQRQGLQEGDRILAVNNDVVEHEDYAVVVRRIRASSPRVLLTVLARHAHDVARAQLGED

APBA2_2, Q99767 = target: T10, APBA2_2, Q99767
T10 sequence (Q99767 654-744, limits assumed, looked up): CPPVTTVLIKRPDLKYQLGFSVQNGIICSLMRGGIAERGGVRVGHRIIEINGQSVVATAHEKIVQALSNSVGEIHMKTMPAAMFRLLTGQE

SCRIB_2, Q14160 = target: SCRIB_2, Q14160
Chain of SCRIB_2, Q14160 (Q14160 857-960): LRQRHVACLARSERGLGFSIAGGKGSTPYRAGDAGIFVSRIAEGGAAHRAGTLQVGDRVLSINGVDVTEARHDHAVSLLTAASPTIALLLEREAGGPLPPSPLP

SNTB1, Q13884 = target: T11, SNTB1, Q13884
T11 sequence (Q13884 107-205, limits assumed, looked up): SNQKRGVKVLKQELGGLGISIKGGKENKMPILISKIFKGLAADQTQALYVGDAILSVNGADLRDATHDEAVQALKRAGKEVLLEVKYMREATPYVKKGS

TJP2_1, Q9UDY2 = target: TJP2_1, Q9UDY2
Chain of TJP2_1, Q9UDY2 (Q9UDY2 24-128): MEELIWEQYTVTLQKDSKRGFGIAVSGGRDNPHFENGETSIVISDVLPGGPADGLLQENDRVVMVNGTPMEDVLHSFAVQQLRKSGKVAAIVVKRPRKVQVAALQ

[1] = plain residues with an end cap or a label only (N-terminal biotin on a linker: ttds)
[2] = plain residues with an end cap or a label only (N-terminal biotin on a linker: ahx)
[3] = plain residues with an end cap or a label only (N-terminal biotin on a linker: none)

FHPLGADSQV [SLC2A1, P11166]
pKd (APBA2_1, Q99767; [1]): below the threshold
pKd (SCRIB_3, Q14160; [1]): 3.58
pKd (LIMK2, P53671; [1]): below the threshold
pKd (PDZD2_2, O15018; [1]): 4.22
pKd (MPDZ_10, O75970; [1]): below the threshold
pKd (DFNB31_2, Q9P202; [1]): below the threshold
pKd (IL16_4, Q14005; [1]): below the threshold
pKd (HTRA1, Q92743; [1]): below the threshold
pKd (LNX2_3, Q8N448; [1]): below the threshold
pKd (DLG1_1, Q12959; [1]): below the threshold
pKd (GRASP, Q7Z6J2; [1]): below the threshold
pKd (GRIP2_3, Q9C0E4; [1]): below the threshold
pKd (DVL3, Q92997; [1]): below the threshold
pKd (RAPGEF6, Q8TEU7; [1]): below the threshold
pKd (IL16_3, Q14005; [1]): below the threshold
pKd (MPP6, Q9NZW5; [1]): below the threshold
pKd (SNX27, Q96L92; [1]): 4.05
pKd (GRIP2_6, Q9C0E4; [1]): below the threshold
pKd (DLG5_1, Q8TDM6; [1]): below the threshold
pKd (ARHGEF11, O15085; [1]): below the threshold
pKd (TJP1_2, Q07157; [1]): below the threshold
pKd (NHERF4_1, Q86UT5-2; [1]): below the threshold
pKd (APBA2_2, Q99767; [1]): below the threshold
pKd (SCRIB_2, Q14160; [1]): below the threshold
pKd (SNTB1, Q13884; [1]): 3.64
pKd (TJP2_1, Q9UDY2; [1]): below the threshold

TVICWPGSLV [LNX2, Q8N448]
pKd (APBA2_1, Q99767; [2]): below the threshold
pKd (SCRIB_3, Q14160; [2]): 4.11
pKd (LIMK2, P53671; [2]): below the threshold
pKd (PDZD2_2, O15018; [2]): 5.07
pKd (MPDZ_10, O75970; [2]): 3.9
pKd (DFNB31_2, Q9P202; [2]): below the threshold
pKd (IL16_4, Q14005; [2]): below the threshold
pKd (HTRA1, Q92743; [2]): 4.94
pKd (LNX2_3, Q8N448; [2]): 3.65
pKd (DLG1_1, Q12959; [2]): 4.21
pKd (GRASP, Q7Z6J2; [2]): 4.59
pKd (GRIP2_3, Q9C0E4; [2]): below the threshold
pKd (DVL3, Q92997; [2]): 3.99
pKd (RAPGEF6, Q8TEU7; [2]): below the threshold
pKd (IL16_3, Q14005; [2]): below the threshold
pKd (MPP6, Q9NZW5; [2]): below the threshold
pKd (SNX27, Q96L92; [2]): 3.95
pKd (GRIP2_6, Q9C0E4; [2]): below the threshold
pKd (DLG5_1, Q8TDM6; [2]): below the threshold
pKd (ARHGEF11, O15085; [2]): 3.58
pKd (TJP1_2, Q07157; [2]): below the threshold
pKd (NHERF4_1, Q86UT5-2; [2]): 3.55
pKd (APBA2_2, Q99767; [2]): below the threshold
pKd (SCRIB_2, Q14160; [2]): 3.65
pKd (SNTB1, Q13884; [2]): 4.1
pKd (TJP2_1, Q9UDY2; [2]): 3.9

NLNSSRVPDLLV [SARS-CoV2-E, P0DTC4]
pKd (APBA2_1, Q99767; [3]): below the threshold
pKd (SCRIB_3, Q14160; [3]): below the threshold
pKd (LIMK2, P53671; [3]): below the threshold
pKd (PDZD2_2, O15018; [3]): below the threshold
pKd (MPDZ_10, O75970; [3]): below the threshold
pKd (DFNB31_2, Q9P202; [3]): below the threshold
pKd (IL16_4, Q14005; [3]): below the threshold
pKd (HTRA1, Q92743; [3]): 4.32
pKd (LNX2_3, Q8N448; [3]): below the threshold
pKd (DLG1_1, Q12959; [3]): below the threshold
pKd (GRASP, Q7Z6J2; [3]): below the threshold
pKd (GRIP2_3, Q9C0E4; [3]): below the threshold
pKd (DVL3, Q92997; [3]): below the threshold
pKd (RAPGEF6, Q8TEU7; [3]): below the threshold
pKd (IL16_3, Q14005; [3]): below the threshold
pKd (MPP6, Q9NZW5; [3]): below the threshold
pKd (SNX27, Q96L92; [3]): below the threshold
pKd (GRIP2_6, Q9C0E4; [3]): below the threshold
pKd (DLG5_1, Q8TDM6; [3]): below the threshold
pKd (ARHGEF11, O15085; [3]): below the threshold
pKd (TJP1_2, Q07157; [3]): 5.52
pKd (NHERF4_1, Q86UT5-2; [3]): below the threshold
pKd (APBA2_2, Q99767; [3]): below the threshold
pKd (SCRIB_2, Q14160; [3]): below the threshold
pKd (SNTB1, Q13884; [3]): below the threshold
pKd (TJP2_1, Q9UDY2; [3]): below the threshold
